This test deals with HLA-A*02:01 (Homo sapiens, UniProt P04439, D140Y/D185E/D98H/E176V/E277Q/G131W/G231S/I119V/I121R/I166T/I218V/L300P/L318F/N151K/N90K/P208A/P217A/Q86G/Q94H/R138H/R169H/T345S). Briefly: MHC binding assay: UV-ligand exchange and β2m ELISA (peptide exchange yield, Table 7). To be noted: binding of HLA-class I restricted peptides to HLA-A*02:01, UV-ligand exchange. An excerpt: Candidate peptides for T cell based therapies according to the present invention were further tested for their MHC binding capacity (affinity). The individual peptide-MHC complexes were produced by UV-ligand exchange, where a UV-sensitive peptide is cleaved upon UV-irradiation, and exchanged with the peptide of interest as analyzed. Only peptide candidates that can effectively bind and stabilize the peptide-receptive MHC molecules prevent dissociation of the MHC complexes. To determine the yield of the exchange reaction, an ELISA was performed based on the detection of the light chain (β2 m) of stabilized MHC complexes. The assay was performed as generally described in Rodenko et al. (Rodenko et al., 2006).
96 well MAXISorp plates (NUNC) were coated over night with 2 ug/ml streptavidin in PBS at room temperature, washed 4× and blocked for 1 h at 37° C. in 2% BSA containing blocking buffer. Refolded HLA-A*02:01/MLA-001 monomers served as standards, covering the range of 15-500 ng/ml. Peptide-MHC monomers of the UV-exchange reaction were diluted 100 fold in blocking buffer. Samples were incubated for 1 h at 37° C., washed four times, incubated with 2 ug/ml HRP conjugated anti-β2 m for 1 h at 37° C., washed again and detected with TMB solution that is stopped with […]. Absorption was measured at 450 nm. Candidate peptides that show a high exchange yield (preferably higher than 50%, most preferred higher than 75%) are generally preferred for a generation and production of antibodies or fragments thereof, and/or T cell receptors or fragments thereof, as they show sufficient avidity to the MHC molecules and prevent dissociation of the MHC complexes.

Take “35 (VIIKGLEEI; listed as Homo sapiens) [compound 35]”: the “Peptide exchange (MHC class I binding score, peptide exchange yield)” value (from here on “Peptide exchange”) is “++ (≥20% = ++)”.

For “50 (ILLSVLHQL; listed as Homo sapiens) [compound 50]”, the “Peptide exchange” value is recorded as “+++ (≥50% = +++)”.

With “283 (ALSELLQQV; listed as Homo sapiens) [compound 283]”, the “Peptide exchange” value is given as “+++ (≥50% = +++)”.

In the case of “49 (KLIGNIHGNEV; listed as Homo sapiens) [compound 49]”, the “Peptide exchange” value is recorded as “++ (≥20% = ++)”.

For “258 (QLVQRVASV; listed as Homo sapiens) [compound 258]”, the “Peptide exchange” value was “++ (≥20% = ++)”.

“151 (DISKRIQSL; listed as Homo sapiens) [compound 151]”: the “Peptide exchange” value is given as “++ (≥20% = ++)”.

Turning to “260 (ALNESLVEC; listed as Homo sapiens) [compound 260]”, the “Peptide exchange” value is “+++ (≥50% = +++)”.

Consider “91 (LLPSIFLMV; listed as Homo sapiens) [compound 91]”, for which the “Peptide exchange” value is reported as “++ (≥20% = ++)”.

“42 (KQMSISTGL; listed as Homo sapiens) [compound 42]”: the “Peptide exchange” value is recorded as “++ (≥20% = ++)”.

Take “253 (KLLAVIHEL; listed as Homo sapiens) [compound 253]”: the “Peptide exchange” value was “+++ (≥50% = +++)”.

Take “22 (LMYPYIYHV; listed as Homo sapiens) [compound 22]”: the “Peptide exchange” value is on record as “+++ (≥50% = +++)”.

Take “257 (KLIDHQGLYL; listed as Homo sapiens) [compound 257]”: the “Peptide exchange” value is “+++ (≥50% = +++)”.

As to “61 (ALYPKEITL; listed as Homo sapiens) [compound 61]”, the “Peptide exchange” value is listed as “+++ (≥50% = +++)”.

As to “14 (YTFSGDVQL; listed as Homo sapiens) [compound 14]”, the “Peptide exchange” value is on record as “+++ (≥50% = +++)”.

For the substance “45 (FLPVSVVYV; listed as Homo sapiens) [compound 45]”, the “Peptide exchange” value is listed as “+++ (≥50% = +++)”.

“60 (YLFSQGLQGL; listed as Homo sapiens) [compound 60]”: the “Peptide exchange” value is “+++ (≥50% = +++)”.

For the substance “228 (SLLELDGINLRL; listed as Homo sapiens) [compound 228]”, the “Peptide exchange” value was “+++ (≥50% = +++)”.

As to “9 (SLITGQDLLSV; listed as Homo sapiens) [compound 9]”, the “Peptide exchange” value is “+++ (≥50% = +++)”.

Consider “17 (GLLPSAESIKL; listed as Homo sapiens) [compound 17]”, for which the “Peptide exchange” value is listed as “++++ (≥75% = ++++)”.

As to “63 (KLLPMVIQL; listed as Homo sapiens) [compound 63]”, the “Peptide exchange” value is listed as “+++ (≥50% = +++)”.

Take “153 (KLVELEHTL; listed as Homo sapiens) [compound 153]”: the “Peptide exchange” value is on record as “+++ (≥50% = +++)”.

Take “108 (FIANLPPELKA; listed as Homo sapiens) [compound 108]”: the “Peptide exchange” value is given as “+++ (≥50% = +++)”.

For “171 (LLLLDVPTA; listed as Homo sapiens) [compound 171]”, the “Peptide exchange” value is “++ (≥20% = ++)”.

For “100 (ALQSFEFRV; listed as Homo sapiens) [compound 100]”, the “Peptide exchange” value is given as “+++ (≥50% = +++)”.

Consider “175 (SLLDLVQSL; listed as Homo sapiens) [compound 175]”, for which the “Peptide exchange” value was “+++ (≥50% = +++)”.

“183 (ALSYILPYL; listed as Homo sapiens) [compound 183]”: the “Peptide exchange” value is recorded as “+++ (≥50% = +++)”.

Consider “114 (LLFPSDVQTL; listed as Homo sapiens) [compound 114]”, for which the “Peptide exchange” value is given as “++ (≥20% = ++)”.

For the substance “255 (FLMKNSDLYGA; listed as Homo sapiens) [compound 255]”, the “Peptide exchange” value is recorded as “+++ (≥50% = +++)”.

Take “66 (AMFPDTIPRV; listed as Homo sapiens) [compound 66]”: the “Peptide exchange” value was “++ (≥20% = ++)”.

For the substance “121 (ALYVQAPTV; listed as Homo sapiens) [compound 121]”, the “Peptide exchange” value is recorded as “++ (≥20% = ++)”.

With “71 (HMSGKLTNV; listed as Homo sapiens) [compound 71]”, the “Peptide exchange” value is reported as “++ (≥20% = ++)”.

Turning to “231 (LLDDIFIRL; listed as Homo sapiens) [compound 231]”, the “Peptide exchange” value is recorded as “+++ (≥50% = +++)”.

As for “278 (VLEDKVLSV; listed as Homo sapiens) [compound 278]”, the “Peptide exchange” value is given as “+++ (≥50% = +++)”.

Take “123 (QTAPEEAFIKL; listed as Homo sapiens) [compound 123]”: the “Peptide exchange” value is recorded as “+ (≥10% = +)”.

“210 (GLAGDNIYL; listed as Homo sapiens) [compound 210]”: the “Peptide exchange” value is “+++ (≥50% = +++)”.

Take “122 (SIIDTELKV; listed as Homo sapiens) [compound 122]”: the “Peptide exchange” value was “+++ (≥50% = +++)”.

Turning to “173 (RLIDIYKNV; listed as Homo sapiens) [compound 173]”, the “Peptide exchange” value is listed as “+++ (≥50% = +++)”.

For “263 (SIIEYLPTL; listed as Homo sapiens) [compound 263]”, the “Peptide exchange” value is given as “+++ (≥50% = +++)”.

Turning to “62 (SLVENIHVL; listed as Homo sapiens) [compound 62]”, the “Peptide exchange” value is “+++ (≥50% = +++)”.

On to “164 (MLIIRVPSV; listed as Homo sapiens) [compound 164]”, for which the “Peptide exchange” value is listed as “+++ (≥50% = +++)”.

As to “51 (LDSEALLTL; listed as Homo sapiens) [compound 51]”, the “Peptide exchange” value was “++ (≥20% = ++)”.

Regarding “268 (SLDKDIVAL; listed as Homo sapiens) [compound 268]”, the “Peptide exchange” value was “++ (≥20% = ++)”.

Turning to “276 (RMPTVLQCV; listed as Homo sapiens) [compound 276]”, the “Peptide exchange” value is given as “+++ (≥50% = +++)”.

Consider “264 (TLHDQVHLL; listed as Homo sapiens) [compound 264]”, for which the “Peptide exchange” value is “++ (≥20% = ++)”.

As to “143 (MLWESIMRV; listed as Homo sapiens) [compound 143]”, the “Peptide exchange” value is given as “+++ (≥50% = +++)”.

Turning to “65 (SLSEKSPEV; listed as Homo sapiens) [compound 65]”, the “Peptide exchange” value was “++ (≥20% = ++)”.

With “195 (VIIQNLPAL; listed as Homo sapiens) [compound 195]”, the “Peptide exchange” value is “+++ (≥50% = +++)”.

On to “208 (HLNNDRNPL; listed as Homo sapiens) [compound 208]”, for which the “Peptide exchange” value is listed as “++ (≥20% = ++)”.

“21 (YLMDDFSSL; listed as Homo sapiens) [compound 21]”: the “Peptide exchange” value is recorded as “+++ (≥50% = +++)”.

For “237 (ALLEQTGDMSL; listed as Homo sapiens) [compound 237]”, the “Peptide exchange” value is “+++ (≥50% = +++)”.

With “193 (ALFHMNILL; listed as Homo sapiens) [compound 193]”, the “Peptide exchange” value is “+++ (≥50% = +++)”.

With “90 (AILNVDEKNQV; listed as Homo sapiens) [compound 90]”, the “Peptide exchange” value is “++ (≥20% = ++)”.

In the case of “244 (NVAEIVIHI; listed as Homo sapiens) [compound 244]”, the “Peptide exchange” value is reported as “+++ (≥50% = +++)”.

“148 (YLILSSHQL; listed as Homo sapiens) [compound 148]”: the “Peptide exchange” value is reported as “+++ (≥50% = +++)”.

For the substance “168 (VIFEGEPMYL; listed as Homo sapiens) [compound 168]”, the “Peptide exchange” value is given as “+++ (≥50% = +++)”.

Consider “179 (TLGEIIKGV; listed as Homo sapiens) [compound 179]”, for which the “Peptide exchange” value is recorded as “+++ (≥50% = +++)”.

For the substance “160 (TLQEWLTEV; listed as Homo sapiens) [compound 160]”, the “Peptide exchange” value is reported as “+++ (≥50% = +++)”.

The values are drawn from patent publication US9994628B2, “Peptides and combination of peptides for use in immunotherapy against various tumors” (IMMATICS BIOTECHNOLOGIES GMBH, priority 2015, dated 2018).
